In US20240092942A1 (LEADARTIS S L, published 2024):

How the values were obtained:
[1] = biological target: hu4-1BB constitutively expressed on NF-kB-luc2/4-1BB Jurkat reporter cells (Promega, #JA2351) (human, UniProt Q07011 24-255); assay: cell-based or functional assay
[2] = biological target: T1, recombinant His-tagged hu4-1BB (Sino Biological, #10014-H08H) (human, UniProt Q07011 24-186); assay: titration ELISA on plastic immobilized His-tagged hu4-1BB, GAM-HRP
T1 construct: Bought; also called soluble hu4-1BB; not shown: His tag
T1 sequence (Q07011 24-186 limits assumed): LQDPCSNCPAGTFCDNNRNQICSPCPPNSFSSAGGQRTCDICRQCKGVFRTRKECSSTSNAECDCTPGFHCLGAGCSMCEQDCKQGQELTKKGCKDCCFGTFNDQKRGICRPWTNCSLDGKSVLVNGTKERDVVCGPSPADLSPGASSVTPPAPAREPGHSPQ

Chain of hu4-1BB constitutively expressed on NF-kB-luc2/4-1BB Jurkat reporter cells (Promega, #JA2351) (Q07011 24-255): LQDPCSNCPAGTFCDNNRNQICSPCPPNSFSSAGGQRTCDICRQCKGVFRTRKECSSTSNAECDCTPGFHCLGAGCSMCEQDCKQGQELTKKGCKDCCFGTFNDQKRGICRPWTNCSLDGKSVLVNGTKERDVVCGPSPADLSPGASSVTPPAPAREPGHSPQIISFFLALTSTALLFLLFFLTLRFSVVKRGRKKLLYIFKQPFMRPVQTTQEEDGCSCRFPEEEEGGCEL

B1: 4-1BB IgG (SAP3.28 IgG), anti-hu4-1BB chimeric antibody (antibody, V domains shown)
VH: QVQLQESGPGLVRPSQTLSLTCTVSGFSLTSYGVHWVRQPPGRGLEWIGVIWRGGSTDYNAAFMSRLSITKDNSKSQVFFEMNSLQADDTAIYYCASPLGTSWDAMDYWGQGSLVTVSS
VL: DIQMTQSPSSLSASVGDRVTITCRASQDISNYLNWYQQKPGKAPKLLIYYKSRLHSGVPSRFSGSGSGTDYTLTISSLQPEDFATYYCQQGNTLPYTFGQGTKVEIK
notes: Bivalent IgG with the Fc region of murine IgG1, supplied by Prof; M. Glennie; also called SAP3.28 mAb; 4-1EE IgG
EC50 (read off the curve); NF-kB reporter, co-culture with CHO^huFcγRIIb [Cont.) c] [1]: ~1 nM | EC50 (read off the curve) [2]: ~0.2 µg/mL

B2: urelumab (anti-hu4-1BB, BMS-663513) (antibody, V domains shown)
VH: QVQLQQWGAGLLKPSETLSLTCAVYGGSFSGYYWSWIRQSPEKGLEWIGEINHGGYVTYNPSLESRVTISVDTSKNQFSLKLSSVTAADTAVYYCARDYGPGNYDWYFDLWGRGTLVTVSS
VL: EIVLTQSPATLSLSPGERATLSCRASQSVSSYLAWYQQKPGQAPRLLIYDASNRATGIPARFSGSGSGTDFTLTISSLEPEDFAVYYCQQRSNWPPALTFGGGTKVEIK
EC50 (read off the curve); NF-kB reporter, co-culture with CHO [Cont.) c] [1]: ~0.1 nM | EC50 (read off the curve); NF-kB reporter, co-culture with CHO^huFcγRIIb [Cont.) c] [1]: ~0.06 nM
